Data as given in paper PMC4121272, “Two β-Galactosidases from the Human Isolate Bifidobacterium breve DSM 20213: Molecular Cloning and Expression, Biochemical Characterization and Synthesis of Galacto-Oligosaccharides” (PLoS ONE, 2014).

Columns and labels:
[1] = target: β-galactosidase β-gal I from Bifidobacterium breve DSM 20213 (Bifidobacterium breve DSM 20213); experiment: SEC-MALS; Superdex S200 10/300 GL; 20 mM Tris pH 7.5, 150 mM NaCl, 1 mM β-mercaptoethanol, 5 mM EDTA; room temperature; 50 µL injected at 2.5 mg/mL; on-line MALLS and refractive index
[2] = target: β-galactosidase β-gal II from Bifidobacterium breve DSM 20213 (Bifidobacterium breve DSM 20213); experiment: as above

β-galactosidase β-gal I from Bifidobacterium breve DSM 20213 (enzyme)
stoichiometry N [1]: 2

β-galactosidase β-gal II from Bifidobacterium breve DSM 20213 (enzyme)
stoichiometry N [2]: 2
